Assay [1] concerns the target T1, Recombinant mouse sclerostin (mouse, UniProt Q99P68 24-211).
T1 construct: Whole entry as named; also called mouse-SOST
T1 sequence: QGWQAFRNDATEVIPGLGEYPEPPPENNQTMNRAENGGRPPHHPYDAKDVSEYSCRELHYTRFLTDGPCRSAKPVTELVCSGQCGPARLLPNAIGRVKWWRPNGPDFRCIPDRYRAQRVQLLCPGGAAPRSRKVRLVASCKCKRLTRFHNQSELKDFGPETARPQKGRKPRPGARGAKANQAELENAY
The assay can be described thus: SPR (Biacore T200), 37 C, dissociation at pH 5.8 of complex formed at pH 7.4. In general terms: Surface plasmon resonance follows binding to a sensor surface in real time, without labels.
Procedure: (§1) The affinity of anti-sclerostin variants binding to human, cynomolgus monkey (cyno), rat, or mouse sclerostin at pH 7.4 and pH 5.8 were determined at 37 degrees C. using Biacore T200 instrument (GE Healthcare). Anti-human Fc (GE Healthcare) was immobilized onto all flow cells of a CM4 sensor chip using amine coupling kit (GE Healthcare). All antibodies and analytes were prepared in ACES pH7.4 or pH 5.8 buffer containing 20 mM ACES, 150 mM NaCl, 1.2 mM CaCl₂, 0.05% Tween 20, 0.005% NaN₃. Each antibody was captured onto the sensor surface by anti-human Fc. […] Sensor surface was regenerated each cycle with 3M MgCl₂.
The pH dependent interaction assessment was determined by a modified Biacore assay. Briefly, an additional dissociation phase at pH5.8 was integrated into the Biacore assay immediately after dissociation phase at pH7.4. This is to assess the pH-dependent dissociation between antibody and antigen from the complexes formed at pH7.4. The dissociation rate at pH5.8 buffer was determined by processing and fitting data using Scrubber 2.0 (BioLogic Software) curve fitting software.

The target in assay [2] is T1, Recombinant mouse sclerostin. The assay can be described thus: SPR (Biacore T200), 37 C, antibody captured by anti-human Fc, sclerostin as analyte, pH 5.8.
Procedure: as §1

For one molecule, koff and Kd results are on record in US20190352387A1 (Chugai, published 2019).

B1: mabB (antibody, V domains shown)
VH: QVQLVQSGAEVKKPGASVKVSCKVSGFPIKDTFQHWVRQAPGKGLEWMGWSDPEIGDTEYASKFQGRVTMTEDTSTDTAYMELSSLRSEDTAVYYCATGDTTYKFDFWGQGTTVTVSS
VL: DIQMTQSPSSLSASVGDRVTITCKASQDVHTAVAWYQQKPGKAPKLLIYWASTRWTGVPSRFSGSGSGTDFTLTISSLQPEDFATYYCQQYSDYPWTFGGGTKVEIK
Turning to B1, the off-rate constant (koff) in assay [1] came out at 0.00265 s⁻¹. In addition, in assay [2], the Kd worked out at 0.26 nM.

One may read the koff as the first-order rate constant of dissociation. In general, Kd refers to the concentration at which binding is half-saturated.
